Laboratory results as given in US6544520B1, “Hepatitis B virus inhibitors” (priority 1996, dated 2003).
Values joined by “and” are separate entries in the source; they are usually repeats but may differ in a detail not shown here. Identical values can stand only once. Non-standard residues stand in square brackets, D forms with d. Residues, ends and D or L forms follow the SMILES beside them. No end group written: not given here. βAla = NCCC(=O)O

target: hepatitis B virus core antigen (HBcAg) (hepatitis B virus); assay: peptide inhibition of 35S-labeled L HBsAg binding to HBcAg-coated wells; conditions: not given
Sequence (P03147 whole entry): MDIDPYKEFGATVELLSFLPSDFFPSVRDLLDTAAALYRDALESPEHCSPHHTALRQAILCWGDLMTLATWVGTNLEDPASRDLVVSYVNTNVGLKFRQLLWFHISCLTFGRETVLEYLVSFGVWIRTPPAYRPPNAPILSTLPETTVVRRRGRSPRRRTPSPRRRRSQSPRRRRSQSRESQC

Row | Molecule | IC50 [µM]
1 | peptide AcSLLGRMKG | 26.2
2 | peptide SLLGRMK | 40.7
3 | peptide LLGRMKG | 46.2
4 | peptide ALLGRMKG | 11
5 | peptide LGRMKG | 980
6 | peptide CLLGRMKC | 652
7 | peptide SLLGRMKG | 6.4
8 | peptide SLLGRMKG(β-A)C | 1.8

target: T1, HBcAg (Hepatitis B virus genotype D subtype adw, UniProt P03147); assay: Peptide inhibition of fusion phage binding to HBcAg-coated wells; conditions: not given
T1 construct: Purification of Particles Comprising Full-Length or Truncated HBcAg; made in house; host or cells: E. coli RB 791
Description: Phage-Binding Assay in Solution. […] Aliquots (100 μl) of each mixture were transferred to polystyrene wells (no. 2585, Costar) that had been coated with HBcAg (20 μg/ml in PBS; 125 μl per well). After 1 hr at 6° C. the wells were washed 10 times with TBS/BSA at 0.2 mg/ml. Bound phage were recovered and titered as described in the previous section. All assays were done in triplicate. The HBcAg concentration range was 1.58-50 μM for experiments with phage B2 and B3 and was 0.63-20 μM for experiments with phage B4. For peptide inhibition experiments, fusion phage (10^9 pfu/ml; 200 μl) were incubated with various concentrations of peptide (1 mM-10 nM) in HBcAg-coated wells for 90 min at 6° C.

T1 sequence (P03147 whole entry, the tested form may be a part): as the sequence (P03147 whole entry) above

Row | Molecule | inhibition of binding of fusion phage to HBcAg
9 | GRMKG (not fully specified) | inability to inhibit
10 | ALLTRILG (HBV Core Antigen Binding Peptide) [peptide including aa 21-27 of the S region, reference compound] | inability to inhibit

target: hepatitis B virus core antigen (HBcAg) (hepatitis B virus); assay: peptide inhibition of 35S-labeled L HBsAg binding to HBcAg-coated wells; conditions: not given; remark: another data set of the same source

Row | Molecule | IC50 [µM]
11 | peptide LDPAFR | 360
12 | peptide ALLGRMKG | 10

target: T2, association of L HBsAg with HBcAg (Hepatitis B virus genotype D subtype adw, UniProt P03147); assay: biochemical; assay type: binding; conditions: not given
T2 construct: Purification of Particles Comprising Full-Length or Truncated HBcAg; made in house; host or cells: HBcAg: E. coli RB 791; L HBsAg: in vitro translation in rabbit reticulocyte lysate with canine pancreatic microsomal membranes
Description: Inhibitors of the Association of HBsAg with HBcAg. The assay system developed for inhibitors of the interaction between HBsAg and HBcAg involved incubating purified membrane-inserted ^35S-labeled L polypeptide in HBcAg-coated wells and quantitating bound protein by scintillation counting. […] The principal target for polyclonal antibodies to the native, particulate S HBsAg resides between as 110 and aa 150 (31-33). […] However, large molecules, such as immunoglobulins, can cause stearic hindrance over a considerable distance in any compound to which they bind.
Inhibition of Membrane-Inserted L-Protein Binding to HBcAg by Antibodies and Peptides. Canine pancreatic microsomal membranes containing labeled protein were purified by layering the translation mixture (60 μl) on a 4-ml step gradient of 1-ml intervals of 77% (wt/vol), 30%, 20%, and 10% sucrose containing 20 mM Hepes (adjusted to pH 7.5 with NaOH)/2 mM dithiothreitol for fractionation by centrifugation (50,000 rpm, 2 hr at 4° C.; Sorvall model TsT 60.4 rotor). […] Sucrose gradient-purified L protein (4 μl) was diluted with NET-gel buffer (100 μl) containing various dilutions of either antibody or peptide for inhibition assays. Mixtures were incubated in HBcAg-coated wells (as in the paragraph Isolation of Phage that Bind to HBcAg) for 2 ½ hr at 4° C. and washed five times with NET-gel buffer with 10-min intervals. Wells were placed in scintillation vials containing Ecoscint A (5 ml; National Diagnostics) for quantitation of radioactivity.

T2 sequence (P03147 whole entry, the tested form may be a part): as the sequence (P03147 whole entry) above

Row | Molecule | inhibition of the reaction between L HBsAg and HBcAg (in words)
13 | GRMKG (not fully specified) | no inhibitory properties
14 | ALLTRILG (HBV Core Antigen Binding Peptide) [peptide including aa 21-27 of the S region, reference compound] | no inhibitory properties

same assay, conditions: IC50: concentration of peptide required to inhibit the binding of L HBsAg to HBcAg at a half maximal level, free peptide; HBcAg-coated wells

Row | Molecule | IC50
15 | LGRMKG [LGRMKG] | 980 ± 157 µM
16 | CSCC[C@H](NC(=O)[C@H](CCCNC(=N)N)NC(=O)CNC(=O)[C@H](CC(C)C)NC(=O)[C@H](CC(C)C)NC(=O)[C@H](CO)NC(=O)[C@H](CCCNC(=N)N)NC(=O)[C@H](Cc1cnc[nH]1)NC(=O)[C@@H](N)CCSC)C(=O)N[C@@H](CCCCN)C(=O)NCC(=O)N[C@@H](C)C(=O)O | 0.8 ± 0.1 µM
17 | CSCC[C@H](NC(=O)[C@H](CCCNC(=N)N)NC(=O)CNC(=O)[C@H](CC(C)C)NC(=O)[C@H](CC(C)C)NC(=O)[C@H](CO)NC(=O)CNC(=O)[C@H](CC(=O)O)NC(=O)[C@H](C)N)C(=O)N[C@@H](CCCCN)C(=O)NCC(=O)N[C@@H](C)C(=O)N[C@@H](C)C(=O)NCC(=O)O | 4.5 ± 0.8 µM
18 | ALLGRMKG | 10 µM and 11 µM
19 | CSCC[C@H](NC(=O)[C@H](CCCNC(=N)N)NC(=O)CNC(=O)[C@H](CC(C)C)NC(=O)[C@H](CC(C)C)NC(=O)[C@@H](N)CO)C(=O)N[C@@H](CCCCN)C(=O)NCC(=O)NCCC(=O)N[C@@H](CS)C(=O)O (H-SLLGRMKG[βAla]C-OH) | 1.8 ± 0.4 µM
20 | SLLGRMK [SLLGRMK] | 40.7 ± 4.8 µM
21 | SLLGRMKGA | 2.4 ± 0.2 µM
22 | SLLGRMKG | 6.4 ± 0.7 µM
23 | CSCC[C@H](NC(=O)[C@H](CCCNC(=N)N)NC(=O)CNC(=O)[C@H](CC(C)C)NC(=O)[C@H](CC(C)C)NC(=O)[C@H](CO)NC(=O)[C@@H](N)CCCNC(=N)N)C(=O)N[C@@H](CCCCN)C(=O)NCC(=O)N[C@@H](C)C(=O)NCCC(=O)N[C@@H](CS)C(=O)O | 0.29 ± 0.03 µM
24 | CSCC[C@H](NC(=O)[C@H](CCCNC(=N)N)NC(=O)CNC(=O)[C@H](CC(C)C)NC(=O)[C@H](CC(C)C)NC(=O)[C@H](CO)NC(=O)CN)C(=O)N[C@@H](CCCCN)C(=O)NCC(=O)N[C@@H](C)C(=O)O | 0.79 ± 0.23 µM
25 | HRSLLGRMKGA | 0.5 ± 0.04 µM
26 | CSCC[C@H](NC(=O)[C@H](CCCNC(=N)N)NC(=O)CNC(=O)[C@H](CC(C)C)NC(=O)[C@H](CC(C)C)NC(=O)[C@H](CO)NC(=O)[C@@H](N)CCCNC(=N)N)C(=O)N[C@@H](CCCCN)C(=O)NCC(=O)N[C@@H](C)C(=O)O | 0.29 ± 0.02 µM
27 | Ac-SLLGRMKG | 26.2 ± 5 µM
28 | LDPAFR [LDPAFR, reference compound] | ~360 µM
29 | CSCC[C@H](NC(=O)[C@H](CCCNC(=N)N)NC(=O)CNC(=O)[C@H](CC(C)C)NC(=O)[C@H](CC(C)C)NC(=O)[C@H](CO)NC(=O)CNC(=O)[C@@H](N)CC(=O)O)C(=O)N[C@@H](CCCCN)C(=O)NCC(=O)N[C@@H](C)C(=O)N[C@@H](C)C(=O)O | 3 ± 0.4 µM
30 | LLGRMKG [LLGRMKG] | 46.2 ± 7.4 µM
31 | CSCC[C@H](NC(=O)[C@H](CCCNC(=N)N)NC(=O)CNC(=O)[C@H](CC(C)C)NC(=O)[C@H](CC(C)C)NC(=O)[C@H](CO)NC(=O)[C@H](CCCNC(=N)N)NC(=O)[C@H](Cc1c[nH]cn1)NC(=O)[C@@H](N)CCSC)C(=O)N[C@@H](CCCCN)C(=O)NCC(=O)N[C@@H](C)C(=O)NCC(=O)NCCC(=O)NCC(=O)N[C@@H](CS)C(=O)O | 3.8 ± 0.69 µM

same assay, conditions: free peptide; HBcAg-coated wells

Row | Molecule | IC50: concentration of peptide required to inhibit the binding of L HBsAg to HBcAg at a half maximal level
32 | GRMKG (not fully specified) | no^2
33 | ALLPRMKG | no
34 | LLGRM (not fully specified) | no

same assay, conditions: inhibition of L HBsAg binding to HBcAg

Row | Molecule | fold improvement over the original ALLGRMKG peptide [fold]
35 | CSCC[C@H](NC(=O)[C@H](CCCNC(=N)N)NC(=O)CNC(=O)[C@H](CC(C)C)NC(=O)[C@H](CC(C)C)NC(=O)[C@H](CO)NC(=O)[C@@H](N)CCCNC(=N)N)C(=O)N[C@@H](CCCCN)C(=O)NCC(=O)N[C@@H](C)C(=O)O | > 40

target: hepatitis B virus core antigen (HBcAg) (hepatitis B virus); assay: phage-binding assay in solution: phage incubated with HBcAg, free phage caught on HBcAg-coated wells and titered; conditions: not given

Row | Molecule | KD^Rel (relative dissociation constant) [nM]
36 | ADGSRSSLLGRMKGA (peptide, not shown: large carriers) [phage 4A-1] | 1.96
37 | ADGPRSSLLGRMKGA (peptide, not shown: large carriers) [phage 4A-2] | 0.84
38 | ADGYQRSLLGRMKGA (peptide, not shown: large carriers) [phage 4A-28] | 0.88
39 | ADGALLGRMKRA (peptide, not shown: large carriers) [phage 6] | 181
40 | ADRSLLGRMKGA (peptide, not shown: large carriers) [phage 2A-8] | 1.09
41 | ADGALLGRMKPA (peptide, not shown: large carriers) [phage 2] | 767
42 | ADGAHRSLLGRMKGA (peptide, not shown: large carriers) [phage 4A-3] | 0.94
43 | ADGSLLGRMKPA (peptide, not shown: large carriers) [phage 1] | 322
44 | ADGTLLGRMKLA (peptide, not shown: large carriers) [phage 4] | 20
45 | ADGTQRSLLGRMKGA (peptide, not shown: large carriers) [phage 4A-26] | 0.84
46 | ADGHRSSLLGRMKGA (peptide, not shown: large carriers) [phage 4B-7] | 1.4
